This test concerns the target PNR hinge-LBD (131–410) (human) (UniProt Q9Y5X4). In words: two-hybrid; as a1, yeast cultured in the presence of the cognate ligand of the AAD partner (T3 for TRβ).

Fold induction of reporter activity by T3 data for one substance are collected here from publication PMC5386588.

Chain of UniProt Q9Y5X4 (Q9Y5X4 131-410): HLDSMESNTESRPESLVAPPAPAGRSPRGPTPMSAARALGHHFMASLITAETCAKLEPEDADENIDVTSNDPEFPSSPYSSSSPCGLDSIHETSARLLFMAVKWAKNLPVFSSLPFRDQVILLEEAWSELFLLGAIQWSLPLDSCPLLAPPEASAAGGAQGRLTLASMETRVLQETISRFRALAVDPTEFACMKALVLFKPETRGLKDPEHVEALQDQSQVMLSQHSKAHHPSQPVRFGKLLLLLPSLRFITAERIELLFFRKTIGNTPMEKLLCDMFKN

On to “near full-length VP16-TRβ1 construct (from UniProt P10828 1-461) (domain or fragment)”, for which the fold induction of reporter activity by T3 came out at 20 fold.
